Measurements taken from publication PMC9841416.

Molecular target: NTH-RNase E D346N D346N (Escherichia coli (K12, P21513-1 in alignment)) (UniProt P21513)
Assay: EMSA
Conditions: 25 mM bis-Tris propane pH 8.3, 100 mM KCl, 15 mM CaCl2, 0.1% (v/v) Triton X-100, 1 mM DTT, 20% (v/v) glycerol, 37 C 20 min; 1% agarose gel in 1x TBE

| Substance | Kd |
| --- | --- |
| glnW-metU segment | 27 nM |
| glnW-tRNA (no flanking single-stranded regions) | 56 nM |
| metU-tRNA with 5' and 3' single-stranded regions | 19 nM |
